For orientation: EC50 means the midpoint of the concentration-response curve. The low end stands for greater potency, the high end for weaker potency.

For test [1], the target named is T1, DLL4 ECD/His tag (R&D 1506-D4-050) (UniProt Q9NR61 27-529).
T1 construct: extracellular domain; Bought antigen coated on the ELISA plate; not shown: His tag
The test can be described thus: direct bind ELISA, DLL4 on plate; DLL4 VD N-term.; HC Long, LC Long. Background: In an ELISA, binding on a coated surface is turned into a signal by an enzyme label.

Test [2] concerns the target T1, DLL4 ECD/His tag (R&D 1506-D4-050). The test can be described thus: direct bind ELISA, DLL4 on plate; DLL4 VD N-term.; HC Short, LC Long.
Protocol: (§1) Enzyme Linked Immunosorbent Assays to screen for antibodies that bind a desired target antigen were performed as follows. […] Plates were washed four times with PBS containing 0.02% Tween 20. Plates were blocked by the addition of 300 μL/well blocking solution (non-fat dry milk powder, various retail suppliers, diluted to 2% in PBS) for ½ hour at room temperature. Plates were washed four times after blocking with PBS containing 0.02% Tween 20.
(§2) Alternatively, one hundred microliters per well of 10 μg/ml of Histidine (His) tagged desired target antigen (R&D Systems, Minneapolis, Minn.) was added to ELISA plates coated with monoclonal mouse anti-polyHistidine antibody as described above and incubated for 1 hour at room temperature. Wells were washed four times with PBS containing 0.02% Tween 20.
(§3) One hundred microliters of antibody or DVD-Ig preparations diluted in blocking solution as described above was added to the desired target antigen plate or desired target antigen/FC fusion plate or the anti-polyHistidine antibody/His tagged desired target antigen plate prepared as described above and incubated for 1 hour at room temperature. Wells are washed four times with PBS containing 0.02% Tween 20.
For test [3] the target is unchanged. Briefly: direct bind ELISA, DLL4 on plate; DLL4 VD N-term.; HC Short, LC Short.
Protocol: as §1, §2
Plates were washed 4 times with PBS containing 0.02% Tween 20.
For test [4] the target is unchanged. The test can be described thus: direct bind ELISA, DLL4 on plate; DLL4 VD N-term.; HC Long, LC Short.
Protocol: as §1, §2, §3

B1: DVD451 (bispecific antibody, human IgG1, kappa, L234A L235A)
heavy: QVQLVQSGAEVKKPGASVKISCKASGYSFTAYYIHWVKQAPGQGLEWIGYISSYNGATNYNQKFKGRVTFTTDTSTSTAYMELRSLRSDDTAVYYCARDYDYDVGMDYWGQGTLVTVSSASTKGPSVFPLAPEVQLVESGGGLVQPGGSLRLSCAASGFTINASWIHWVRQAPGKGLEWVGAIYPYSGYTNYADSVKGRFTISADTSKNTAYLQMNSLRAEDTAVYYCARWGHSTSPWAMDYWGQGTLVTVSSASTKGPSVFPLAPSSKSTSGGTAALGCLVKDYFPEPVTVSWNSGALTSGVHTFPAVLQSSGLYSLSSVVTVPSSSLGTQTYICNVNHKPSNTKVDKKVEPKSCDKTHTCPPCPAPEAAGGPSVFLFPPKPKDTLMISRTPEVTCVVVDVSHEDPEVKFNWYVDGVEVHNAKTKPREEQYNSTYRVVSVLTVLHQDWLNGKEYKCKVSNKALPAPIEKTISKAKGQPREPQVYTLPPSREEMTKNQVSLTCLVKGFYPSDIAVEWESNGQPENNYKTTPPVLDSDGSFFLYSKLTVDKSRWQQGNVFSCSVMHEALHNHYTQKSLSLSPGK
light: DIVMTQSPDSLAVSLGERATISCRASESVDNYGISFMKWFQQKPGQPPKLLIYAASNQGSGVPDRFSGSGSGTDFTLTISSLQAEDVAVYYCQQSKEVPWTFGGGTKVEIKRTVAAPSVFIFPPDIQMTQSPSSLSASVGDRVTITCRASQVIRRSLAWYQQKPGKAPKLLIYAASNLASGVPSRFSGSGSGTDFTLTISSLQPEDFATYYCQQSNTSPLTFGQGTKVEIKRTVAAPSVFIFPPSDEQLKSGTASVVCLLNNFYPREAKVQWKVDNALQSGNSQESVTEQDSKDSTYSLSSTLTLSKADYEKHKVYACEVTHQGLSSPVTKSFNRGEC
notes: DVD-Ig; outer AB069 (DLL4), inner AB071 (VEGF); HC long, LC long linker; also called DVD451H; DVD451L
In turn, B1 yielded a concentration for a half-maximal effect (EC50) in test [1] of 0.4 nM.

B2: DVD463 (bispecific antibody, human IgG1, kappa)
heavy: not shown
light: B1 light
notes: DVD-Ig; outer AB069 (DLL4), inner AB071 (VEGF); HC short, LC long linker; also called DVD463H; DVD463L
As for B2, the midpoint of the response in test [2], the EC50, lay at 0.5 nM.

B3: DVD521 (bispecific antibody, human IgG1, kappa, lambda, L234A L235A)
heavy: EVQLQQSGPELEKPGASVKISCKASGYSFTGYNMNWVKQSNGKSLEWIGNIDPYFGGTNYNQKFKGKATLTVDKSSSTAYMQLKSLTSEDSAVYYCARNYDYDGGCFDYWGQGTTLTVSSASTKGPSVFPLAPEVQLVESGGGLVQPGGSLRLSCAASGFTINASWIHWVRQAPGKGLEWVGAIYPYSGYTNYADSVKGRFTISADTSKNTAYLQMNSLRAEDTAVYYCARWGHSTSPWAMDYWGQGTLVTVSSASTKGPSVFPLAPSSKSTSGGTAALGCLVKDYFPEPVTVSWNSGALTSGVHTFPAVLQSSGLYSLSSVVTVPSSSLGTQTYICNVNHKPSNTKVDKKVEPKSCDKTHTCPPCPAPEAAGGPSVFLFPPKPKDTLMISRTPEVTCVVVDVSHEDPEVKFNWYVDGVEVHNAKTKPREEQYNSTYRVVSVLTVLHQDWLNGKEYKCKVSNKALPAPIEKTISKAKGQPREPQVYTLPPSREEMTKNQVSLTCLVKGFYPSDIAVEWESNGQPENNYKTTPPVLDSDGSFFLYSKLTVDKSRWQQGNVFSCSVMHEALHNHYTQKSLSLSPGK
light: QAVVTQESALTTSPGETVTLTCRSSTGAVTTSNYANWVQEKPDHLFTGLIGGTNNRAPGVPARFSGSLIGDKAALTITGAQTEDEAIYFCALWYSNHWVFGGGTKLTVLGQPKAAPSVTLFPPDIQMTQSPSSLSASVGDRVTITCRASQVIRRSLAWYQQKPGKAPKLLIYAASNLASGVPSRFSGSGSGTDFTLTISSLQPEDFATYYCQQSNTSPLTFGQGTKVEIKRTVAAPSVFIFPPSDEQLKSGTASVVCLLNNFYPREAKVQWKVDNALQSGNSQESVTEQDSKDSTYSLSSTLTLSKADYEKHKVYACEVTHQGLSSPVTKSFNRGEC
notes: DVD-Ig; outer AB073 (DLL4), inner AB071 (VEGF); HC long, LC long linker; also called DVD521H; DVD521L
Molecule B3 had an EC50 in test [1] of 0.26 nM.

B4: DVD533 (bispecific antibody, human IgG1, kappa, lambda, L234A L235A)
heavy: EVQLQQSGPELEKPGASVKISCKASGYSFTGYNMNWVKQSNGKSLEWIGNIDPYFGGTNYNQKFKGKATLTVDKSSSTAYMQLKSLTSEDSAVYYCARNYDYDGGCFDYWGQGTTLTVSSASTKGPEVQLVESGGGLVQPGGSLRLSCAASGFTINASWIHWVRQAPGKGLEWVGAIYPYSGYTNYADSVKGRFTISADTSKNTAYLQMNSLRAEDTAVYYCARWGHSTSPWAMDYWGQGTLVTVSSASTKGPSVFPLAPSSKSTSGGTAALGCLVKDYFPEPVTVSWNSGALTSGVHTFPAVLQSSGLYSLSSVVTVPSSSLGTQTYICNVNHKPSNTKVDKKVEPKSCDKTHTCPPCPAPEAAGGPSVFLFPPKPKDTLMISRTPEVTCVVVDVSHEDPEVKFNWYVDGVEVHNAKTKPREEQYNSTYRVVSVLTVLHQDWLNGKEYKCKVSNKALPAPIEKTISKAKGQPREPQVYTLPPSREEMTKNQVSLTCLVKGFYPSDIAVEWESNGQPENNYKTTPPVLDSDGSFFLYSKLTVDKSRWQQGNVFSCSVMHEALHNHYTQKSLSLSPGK
light: B3 light
notes: DVD-Ig; outer AB073 (DLL4), inner AB071 (VEGF); HC short, LC long linker; also called DVD533H; DVD533L
For B4, the midpoint of the response in test [2], the EC50, lay at 0.25 nM.

B5: DVD497 (bispecific antibody, human IgG1, kappa)
heavy: not shown
light: DIQMTQSSSYLSVSLGGRVTITCKASDHINNWLAWYQQKPGNAPRLLISGATSLETGVPSRFSGSGSGKDYTLSITSLQTEDVATYYCQQYWSIPLTFGAGTKLELKRTVAAPSVFIFPPDIQMTQSPSSLSASVGDRVTITCRASQVIRRSLAWYQQKPGKAPKLLIYAASNLASGVPSRFSGSGSGTDFTLTISSLQPEDFATYYCQQSNTSPLTFGQGTKVEIKRTVAAPSVFIFPPSDEQLKSGTASVVCLLNNFYPREAKVQWKVDNALQSGNSQESVTEQDSKDSTYSLSSTLTLSKADYEKHKVYACEVTHQGLSSPVTKSFNRGEC
notes: DVD-Ig; outer AB072 (DLL4), inner AB071 (VEGF); HC long, LC long linker; also called DVD497H; DVD497L
For the molecule B5, the EC50 in test [1] came to 0.53 nM. In other words, the sub-nanomolar range.

B6: DVD509 (bispecific antibody, human IgG1, kappa)
heavy: not shown
light: B5 light
notes: DVD-Ig; outer AB072 (DLL4), inner AB071 (VEGF); HC short, LC long linker; also called DVD509H; DVD509L
B6 gave an EC50 in test [2] of 0.21 nM.

B7: DVD473 (bispecific antibody, human IgG1, kappa)
heavy: not shown
light: DIQMTQSPSSLSASVGDRVTITCRASQDVSTAVAWYQQKPGKAPKLLIYSASFLYSGVPSRFSGSGSGTDFTLTISSLQPEDFATTYYCQQSYTGTVTFGQGTKVEIKRTVAAPSVFIFPPDIQMTQSPSSLSASVGDRVTITCRASQVIRRSLAWYQQKPGKAPKLLIYAASNLASGVPSRFSGSGSGTDFTLTISSLQPEDFATYYCQQSNTSPLTFGQGTKVEIKRTVAAPSVFIFPPSDEQLKSGTASVVCLLNNFYPREAKVQWKVDNALQSGNSQESVTEQDSKDSTYSLSSTLTLSKADYEKHKVYACEVTHQGLSSPVTKSFNRGEC
notes: DVD-Ig; outer AB015 (DLL4), inner AB071 (VEGF); HC long, LC long linker; also called DVD473H; DVD473L
On to B7, for which the EC50 in test [1] amounted to 1.8 nM.

B8: DVD485 (bispecific antibody, human IgG1, kappa)
heavy: not shown
light: B7 light
notes: DVD-Ig; outer AB015 (DLL4), inner AB071 (VEGF); HC short, LC long linker; also called DVD485H; DVD485L
In turn, B8 returned an EC50 in test [2] of 1.41 nM.

B9: DVD515 (bispecific antibody, human IgG1, kappa)
heavy: not shown
light: QAVVTQESALTTSPGETVTLTCRSSTGAVTTSNYANWVQEKPDHLFTGLIGGTNNRAPGVPARFSGSLIGDKAALTITGAQTEDEAIYFCALWYSNHWVFGGGTKLTVLGQPKAAPDIQMTQSPSSLSASVGDRVTITCRASQVIRRSLAWYQQKPGKAPKLLIYAASNLASGVPSRFSGSGSGTDFTLTISSLQPEDFATYYCQQSNTSPLTFGQGTKVEIKRTVAAPSVFIFPPSDEQLKSGTASVVCLLNNFYPREAKVQWKVDNALQSGNSQESVTEQDSKDSTYSLSSTLTLSKADYEKHKVYACEVTHQGLSSPVTKSFNRGEC
notes: DVD-Ig; outer AB073 (DLL4), inner AB071 (VEGF); HC short, LC short linker; also called DVD515H; DVD515L
Take B9: the EC50 in test [3] is 0.2 nM. This counts as sub-nanomolar.

B10: DVD527 (bispecific antibody, human IgG1, kappa)
heavy: not shown
light: B9 light
notes: DVD-Ig; outer AB073 (DLL4), inner AB071 (VEGF); HC long, LC short linker; also called DVD527H; DVD527L
Molecule B10 yielded an EC50 in test [4] of 0.2 nM.

B11: DVD457 (bispecific antibody, human IgG1, kappa, L234A L235A)
heavy: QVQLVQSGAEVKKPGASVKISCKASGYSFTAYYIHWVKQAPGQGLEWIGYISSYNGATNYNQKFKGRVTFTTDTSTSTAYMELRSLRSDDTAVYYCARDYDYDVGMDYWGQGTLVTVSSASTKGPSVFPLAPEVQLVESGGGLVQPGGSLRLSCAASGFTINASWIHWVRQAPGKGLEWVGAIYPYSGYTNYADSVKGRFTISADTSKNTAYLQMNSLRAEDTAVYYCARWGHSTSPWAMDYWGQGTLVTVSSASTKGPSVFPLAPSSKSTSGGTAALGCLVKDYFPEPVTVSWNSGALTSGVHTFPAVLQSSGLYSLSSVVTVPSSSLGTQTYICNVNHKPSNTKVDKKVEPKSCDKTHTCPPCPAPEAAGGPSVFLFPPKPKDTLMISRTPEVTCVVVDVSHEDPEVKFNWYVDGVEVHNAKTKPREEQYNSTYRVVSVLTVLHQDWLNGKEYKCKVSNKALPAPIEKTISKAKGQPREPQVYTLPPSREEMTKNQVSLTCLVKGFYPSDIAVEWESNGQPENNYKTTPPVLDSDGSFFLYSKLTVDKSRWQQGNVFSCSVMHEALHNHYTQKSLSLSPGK
light: DIVMTQSPDSLAVSLGERATISCRASESVDNYGISFMKWFQQKPGQPPKLLIYAASNQGSGVPDRFSGSGSGTDFTLTISSLQAEDVAVYYCQQSKEVPWTFGGGTKVEIKRTVAAPDIQMTQSPSSLSASVGDRVTITCRASQVIRRSLAWYQQKPGKAPKLLIYAASNLASGVPSRFSGSGSGTDFTLTISSLQPEDFATYYCQQSNTSPLTFGQGTKVEIKRTVAAPSVFIFPPSDEQLKSGTASVVCLLNNFYPREAKVQWKVDNALQSGNSQESVTEQDSKDSTYSLSSTLTLSKADYEKHKVYACEVTHQGLSSPVTKSFNRGEC
notes: DVD-Ig; outer AB069 (DLL4), inner AB071 (VEGF); HC long, LC short linker; also called DVD457H; DVD457L
Molecule B11 registered an EC50 in test [4] of 0.13 nM.

B12: DVD479 (bispecific antibody, human IgG1, kappa)
heavy: not shown
light: DIQMTQSPSSLSASVGDRVTITCRASQDVSTAVAWYQQKPGKAPKLLIYSASFLYSGVPSRFSGSGSGTDFTLTISSLQPEDFATTYYCQQSYTGTVTFGQGTKVEIKRTVAAPDIQMTQSPSSLSASVGDRVTITCRASQVIRRSLAWYQQKPGKAPKLLIYAASNLASGVPSRFSGSGSGTDFTLTISSLQPEDFATYYCQQSNTSPLTFGQGTKVEIKRTVAAPSVFIFPPSDEQLKSGTASVVCLLNNFYPREAKVQWKVDNALQSGNSQESVTEQDSKDSTYSLSSTLTLSKADYEKHKVYACEVTHQGLSSPVTKSFNRGEC
notes: DVD-Ig; outer AB015 (DLL4), inner AB071 (VEGF); HC long, LC short linker; also called DVD479H; DVD479L
Regarding B12, in test [4], the EC50 was 1.69 nM.

B13: DVD491 (bispecific antibody, human IgG1, kappa)
heavy: not shown
light: DIQMTQSSSYLSVSLGGRVTITCKASDHINNWLAWYQQKPGNAPRLLISGATSLETGVPSRFSGSGSGKDYTLSITSLQTEDVATYYCQQYWSIPLTFGAGTKLELKRTVAAPDIQMTQSPSSLSASVGDRVTITCRASQVIRRSLAWYQQKPGKAPKLLIYAASNLASGVPSRFSGSGSGTDFTLTISSLQPEDFATYYCQQSNTSPLTFGQGTKVEIKRTVAAPSVFIFPPSDEQLKSGTASVVCLLNNFYPREAKVQWKVDNALQSGNSQESVTEQDSKDSTYSLSSTLTLSKADYEKHKVYACEVTHQGLSSPVTKSFNRGEC
notes: DVD-Ig; outer AB072 (DLL4), inner AB071 (VEGF); HC short, LC short linker; also called DVD491H; DVD491L
In turn, B13 had an EC50 in test [3] of 0.39 nM. In other words, the sub-nanomolar range.

B14: DVD503 (bispecific antibody, human IgG1, kappa)
heavy: not shown
light: B13 light
notes: DVD-Ig; outer AB072 (DLL4), inner AB071 (VEGF); HC long, LC short linker; also called DVD503H; DVD503L
On to B14, for which, in test [4], the concentration giving a half-maximal response (EC50) was determined as 0.33 nM.
